The values below come from patent US20250251406A1.

For test [1], the target named is IL-17A/A dimer (Homo sapiens (Human)) (UniProt Q16552). Briefly: Alphascreen (protein-protein interaction assay); inhibition of IL17AA with IL-17RA. (In general: Alpha assays give light when donor and acceptor beads are brought close together.)
For test [2], the target named is IL-17A/F dimer (Homo sapiens (Human)) (UniProt Q16552). Briefly: Alphascreen (protein-protein interaction assay); inhibition of IL17AF with IL-17RA.
For test [3], the target named is IL-17F/F dimer (Homo sapiens (Human)) (UniProt Q96PD4). As to the kind of experiment: Alphascreen (protein-protein interaction assay); inhibition of IL17FF with IL-17RC.
Test [4] concerns the target IL-17A/A dimer (Homo sapiens (Human)) (UniProt Q16552).
Test [5] deals with IL-17A/F dimer (Homo sapiens (Human)) (UniProt Q16552).

Chain of UniProt Q96PD4 (Q96PD4 31-163 limits assumed): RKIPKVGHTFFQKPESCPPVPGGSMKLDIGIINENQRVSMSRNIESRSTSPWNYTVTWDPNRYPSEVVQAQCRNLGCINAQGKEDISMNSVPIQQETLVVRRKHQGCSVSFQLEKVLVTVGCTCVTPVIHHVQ

One may read the IC50 as the concentration at which inhibition is half-maximal. Turning to sonelokimab (VHH), the IC50 in test [1] came out at 0.039 nM. Moreover, the IC50 in test [2] worked out at 0.066 nM. Further, in test [3], the IC50 turned out to be 0.013 nM. Besides, in test [4], the % inhibition of CCL20 expression (TNF + IL17A/A stimulation) in keratinocytes, SLK 0.1 µg/mL is -66%; the % inhibition of CCL20 expression (TNF + IL17A/A stimulation) in keratinocytes, SLK 1 µg/mL was -66%; the % inhibition of CXCL8 expression (TNF + IL17A/A stimulation) in keratinocytes, SLK 0.1 µg/mL is -73%; the % inhibition of CXCL8 expression (TNF + IL17A/A stimulation) in keratinocytes, SLK 1 µg/mL was -88%. In test [5], the % inhibition of CCL20 expression (TNF + IL17A/F stimulation) in keratinocytes, SLK 0.1 µg/mL was -75%; the % inhibition of CCL20 expression (TNF + IL17A/F stimulation) in keratinocytes, SLK 1 µg/mL was -53%; the % inhibition of CXCL8 expression (TNF + IL17A/F stimulation) in keratinocytes, SLK 0.1 µg/mL is -61%; the % inhibition of CXCL8 expression (TNF + IL17A/F stimulation) in keratinocytes, SLK 1 µg/mL was -68%.
